Assay: soluble on expression in E. coli; label from the status in PepcDB or PDB records

| Sequence | soluble on expression in E. coli |
| --- | --- |
| MSLNPTIQPYQFNIIKEQVAVLLNTYTSVNDATTVKTVQALCAEKINGLFPEEHPAVTILLDKVMDRRLTRARAEKYLDELKETVLPFKEPSTPQVTKVFRKVKKLKIPEWENMDLRNNTYVGWNDAGTQKIFILAYRENKLIGVHGTLSPTIVKGVCSICQTITNVSMFLATTKSGGDGTYTKKGNYICHDSDTCNQQLTQPEYLEAFMENVKAVKEGHHHHHH | soluble |
| MSLNQQKKQAPVELKVGQTFPLTIKRLGINGEGVGYFKKKVVFVPGALPGEEVVVQATKVQPKFSEGRIKKIRKASEHRVAPPCPVYEQCGGCQLQHLAYSQQLREKRDIVIQSLERHTKFKVENMEIKETIGMDNPWNYRNKSQFQIGRSQSGSIIAGLYGLDSHDIVPIKDCIVQHPATNKTTGIVRRILEDFNVSVYNERKRKGDVRTIVTRVGFETGEVQVVLVTAKETLPHKEEIVKAIQKRLPEVKSIIQNVNGAKTSVIFGEKTKQLAGKTVIQEVLGDVSFELSARAFFQLNPEQTVKLYDEVKKAAQLTGKEKVVDAYCGVGTIGMWVADGAKEVRGMDVIKESIDDAKKNAKKHGMANATYVTGTAEHWLPKWTKEGFRPDVVIVDPPRTGCDSTFLDTIKKVKPKRFVYVSCNPSTLAKDLQTLSKDYRVDYIQPVDMFPQTAHVEAVARLVLKSSNEGHHHHHH | not soluble |
| MSLNQRTLFDKIWDEHVVDVGADGTTLLYVDRHFLHEVTSPQAFRGLQLAGRRPWRSDANLAMPDHNVPTKDRAAHLDDALARAQIEALDRNCAEFAVPLFRLSDPRQGIVHVSGPEQGASLPGSVIVCGDSHTSTHGALATIAHGIGTSEVEHVLATQTLLARKPARMRVNFHGVAGAGVSAKDMALAMIAKVGAAGAQGYAIEYAGEAVRCLSVEARMTLCNMSIEAGARCGMVAVDDKTIEYLRGRPMAPRGESWDLAVRTWRALVSDHDAQFDVEIEIDVGMLGPLVTWGTSPDMVISVDEKIPDPAAEKDGTRRAGMERALRYMDLAPGTPITDVRLDRIFIGSCTNSRLEDLRAAAEVIRGKHVAASIRQALVVPGSGLVKQQAENEGLHQLFIDAGFEWRDAGCSMCVGMNADHLLSGERCASTSNRNFEDRQGVGGRTHLVSPAMAAAAAIAGHFVDIRRSEGHHHHHH | not soluble |
| MSLNSEAFTGNAAQRFLFSSSDGTKIVSIADRGHLRWCHSTSTTYKSLDFDLQFEGKVEGAVSSTTADYVCIYNRDELHVLEVPWMYSGEENGLKHLCHIYSHKFDENHSIKQVLFHPKSYLDSTILVLTNDDSIFMINTDDNRSDKNMINLNSKNSALGLYDRINDIQKIIFSQDGLSLLILSAEEGCDIFTIYPCLPRRWDISLHEVDTLFAKSLLLYNNMNVNTTPQEKRNIVKQLNFMEKIRGQKTAFRNDKKPLILEDAYLNAQPQGPFSMTPYPNELYDFMATDINIIQITQNISLLAIAFSNGTVLLFLSDLEPIMSWDISRFPGSNSLALLEQIKLEITDNAKFLSIPGTYGKFVVTDNVKSNFFVNTCDWSTILAQIIDDSDIKLLANLKVKSNIENLQQLATTFKSIIYWKNENISCNYIISDKKIEELDEGHHHHHH | soluble |
| MSLPEHTPSDRLALDAMLGKLATYLRMCGYDTAYALDRDAEADDDLLDIAEREDRLVITRDSDLATRAPESVLLSEREIEDQLRELADAGFRLSLAPEPDYCGVCNSPVEEVDPVEPTPEYAPSAGDERVWRCTDCGQHFWKGSHWASVEATLEDVEGHHHHHH | soluble |
| MSLPLVTLNSVRFAGMATCVPKRVVSNLTDCKPQIRPERERLVRNIGIELRRLTQEWQCFSDLAFDAASKLIESLEWKLEEIDALIVVTQSPDYLAPATAIILQDRLGLPHTTLAFDVNLGCSGYPFGLHLLGSLISAGGIKKGLVLVGDSGAQLNDPIFSDAGTATAMEFCADAPPMYFDLNSDGSGHKAIILPVGGHREPVGIQHLVPFRENENDHWHRAIDLQLDGTAVLSFSTQRVPPAVEKLLEYANASKDEVDYFIFHQANRMINETIRKKLALPVEKVPSTLRDFGNTSGASLPVTMTARINKQLEEGSKRLVLSGFGIGLSWGTCLVDIQGAKFPDLIESEGHHHHHH | soluble |
| MSLPNIDSLFVTRLYRAALSEHGPAIDAKEMEASCYSIAEDDEAGQGWCDENGYPGYTSYASLSDLPWRFPIFADLVKVLDAHVAAFAEDLEFDLDGKELKLEDIWINILPEGGMHASHIHPHSVISGTTYVAMPEGTSALKLEDPRSARMMASPVRRKDARQELRTFIYAKPVVGDVLLWESWLRHEVPMNMSEEDRISVSFNYSWGEGHHHHHH | soluble |
| MSLPSEISDKATVPIEIGLTAAIVAIEANQPMILTASGDGGGSLAGLPYGPFDAITHRTLEIGLRAWVEEQTGLRLGYVEQLYTFGDRGRHARLGDTEVHVASIGYLALTRAADNAARAAGATFEPWYRFFPWEDWREQQPAIIARDIIPELTAWAAQAEEPGMARALARKDRVRLFFGVDGAPWDEERVLDRYELLYEAGLIEEARRDGRPAALSRSKAPTLGVAMRFDHRRILATAIARLRAKLKYRPVVFELLPPEFTLTELQHTVEAISGRHLHKQNFRRLVEAGALVEPTGEM | not soluble |
| MSLQEGEFEPTWESLQNYKVPEWFRNAKFGIWAHWGPQCVEGSGDWMARSLYLEGSREYKHHVEHYGHPSEVGFKDILPLFKAEKWDPDKLVSFYKKIGAQYFFALGNHHDNYDLWDSQYQEWNSVNIGPKKDILAGWAEAAKKNGLPFGISFHADHAWSWYEPAQRYDRHGEKAGVPYDGCLTKEDGKGKWWEGYDPQKLYAQNHPLSAGSWADGMIHRQWAWGNGVCIPTQEYVTNFYDRTVDAINRYNPDLIYFDVTGVPFYPISDAGLKIAAHFYNHNMVVRKGDFSAVMFGKILTDEQRKALVWDVERGSPNSIYEEPWQTCSCLGGWHYDTRLAENGWYKSASDVVKLLVDVVSKNGNLLLSVPLRADGTFDEKEEAILNEFGNWMSMNKEAIYDTRPWKVFGEGPIANADIKINAQGFNEGAYTKATASEIRFTQTKKYLYATVLAWPEEKQVVIQSLATGSELYPDKITKIELLGYGKVSFTRTAQGVVIDMPDVQLNKIAPVFKIKKEGHHHHHH | soluble |
| MSLQGIHTISFVGLGLIGASLMQALKRAAGATGRNIEMIGFDPAFDAADIVAITGECGLDRFEPDPAKLYNADLVVLCAPVVTNIALLDEAKRHIRKDTLVSDVSSTKAEIAAKAQELGIEFIGMHPIAGREQQGYQAASPELLDGRLVILCTECATLETTLATELAGLLRAAGCKPLFMSPEEHDRVYANISHLPQLISTALMAHCRENVEWAGPGFASMARLAGSPWAVWRDIVETNRSNIADEMEAFSALLADVAGEVRGGNFEALESKFREANDLYQRLQERSSEGHHHHHH | soluble |
| MSLQHACIFLELLKITYIHCMKRLLSLYLVLSGFLLHAQTVKELKTVASSFSEMAKIPAGSFLKHEYSFLNIQPTKQDTNLLFCIHPEATITKVTTSFYISTHEVTNAEYRQFIVWVTDSLIKNNITFDTVFYRYTTPSGKSTRISIVPDTMNRVLRDMFGYCNLNYYTHKEFISFPTTNISWHQAQAYIHWLNNRMLELLKKNHVPTTDWGKYRLPEALEWEYAAMIVEKNGDWFNQRNPDAYNIYGWLDYPLTTKEGLYKANFGLIRDLNHMVIKARWDDNYDALAPVKKYVPSLMGLYDLSGNVSEWTNTSISLDSLNKFYAGYYSNLLQTKYQHLFEELLKPAPDWKKFDAFKAESVRGRYDAQAQQYWFNEYVIRVKEMENYNRSILSRISDGMLVKGGSWDNPPVYMINTCSQVLSKNFTTPQTGFRVALTLEPAFEKLLGSYLTGEGHHHHHH | not soluble |
| MSLQIKDEILSLLKRGKNLLAFSYGSDSSVLFYLLMQEKIDFDLVMINYKTRKNSDLEELKAKELALKFHKKIFIKHAPKFQSNFEKKARDFRYDFFEKICLEQGYDHLILAHHLNDQFEWFLMQLSRGAGLAEILGMQECEKRSNYTLLRPLLFISKDEISSFLKEKDIFYFHDESNENEKYFRNYIRKNFSNAFVSEFHQGLKRSFSYLDEDRKKLYDFENIKEIQGLLICPKNESLIARAVKMKGLLLSTAQRKELLKGDCVLGGKIALAYKNEQAIVFEYETCQKLPKNFKEECRIAKIPRLLRAYLYNHKIDISSLSEGHHHHHH | soluble |
| MSLQLSKAAEMCYEITNSYLHIDQKSQIIASTQEAIRLTRKYLLSEIFVRWSPLNGEISFSYNGGKDCQVLLLLYLSCLWEYFFIKAQNSQFDFEFQSFPMQRLPTVFIDQEETFPTLENFVLETSERYCLSLYESQRQSGASVNMADAFRDFIKIYPETEAIVIGIRHTDPFGEALKPIQRTDSNWPDFMRLQPLLHWDLTNIWSFLLYSNEPICGLYGKGFTSIGGINNSLPNPHLRKDSNNPALHFEWEIIHAFGKDAEGERSSAINTSPISVVDKERFSKYHDNYYPGWYLVDDTLERAGRIKNEGHHHHHH | soluble |
| MSLQNHDLESIKQAALIEYEVREQGSSDVLDSNISKEPLEFIIGANQIIVGLEKAVLKAQIGEWEEIVIAPEEAYGVYESGYLQEVPRDQFEGIELEKGMSVFGQTEDNQTIQATIKDFSNTHVMVDYNHPLAGKTLAFRFKVLGFREVSEEEILASHHDSGTGCCGGHGGHGGKKGGGCGCSCSHGEGGSHHHHHH | soluble |
| MSLQNTLGHRLVVGERQLLRFPAQQRSAAGDRLHAPSVYRRACIASLRSRQACYRHARRRCRQQEGAAMTGINRRELLRGMLASGVRAALPAGAAGALLPGSADAAPAAAKDATPLAPLGDASLAPRERLLFDFGWRFHPGHASDPSRDFEFGTFQRTFAKAGKDTATAAQLAFDDSNWQQVDLPHDWAVTLPFRPEPISASMTEEDPAAAHGYKALGTSFPENSVGWYRRMLQIPASDLGKRICLVFDGVFRDCVVFCNGHIVGRNASGYCGFEVDLSEVLDYGKPNLIVVRVDATLGEGWFYEGAGIYRHLWLQKTDPLHVPQHGVFVRSSVQGDTATAQLSTEVRNDGTASRQCVVQARITAPYGRIVAQAASAAVTVAPGQVQVVEQTVPLGQAALWSIDTPQLYTLTTSVHSAGVAVDALVTPFGVRSIAFDAQRGFLLNGAPLKLHGTNNHQDHAGVGTAIPDALHAWRLRQLKSMGCNAYRSSHNPATPELLALCDRLGMFVIEETRRMSTDPEAMAELETMVRRGRNHPSVILWSLGNEEPQQVTERGARIVTRMQQRVRQLDPTRPTTFAMDKGFGDGVGQVVDVVGFNYRTSQMDGFHAQYPNIPIYGSETGSTVSVRGNYQRDDTRGYTRAYDTDHPWWASTAEAWWSYVAQRPYIAGGFIWTGFDYRGEPTPYNRWPNVGSQFGVLDSCGFPKDNYWYYRAQWTSEPVLHLFPHWNWDGLLQPDDKGRVEVWCHSNLEAVELLVNGVSQGLQQVPAYGHVEWRVAYAPGVIEARGYRGGKLVLTERRETVGKPAAIRLSCDRSALRADAEDVAVVKVEIVDAQGRLVPNADHLVHLVLRGPARLIGVGNGDPSSHEDDKAPQRKAFNGLCMALLRSTRSSGQILLQATAPGLTSAALHLQAATSAEGHHHHHH | soluble |
| MSLQRESLDILKLSQAIKKCDAILIGAGAGLSSAAGLSYSGNRFKKYFNDFITKYHLQDMYSAGFYPYPSLEKYWAYWSRHIYYNRYLEAPKDTYKKLLNLLINKDYFVITTNVDHQFQIAGFIKEKLFYTQGDYGLWQCSKPCHQKTYDNYETVVTMIKQQHDLKIPSSLIPYCPICNAPMTMNLRCDKTFVQDSGWYHAQERYYHFLNKYHYSKIVYLELGVGYNTPGIIKYPFWQLTIENPKAIYACINQDIIDLPSELKKQTIMINDNIHNVLSSLEKLLEGHHHHHH | soluble |
| MSLQSSIYRIRHLAKPAYREEFKGDIECSTAAYKEVLEDTSTDSTSKLPLEAKFGKMSIIKLVLLLIISTIIYANDKNISNLHITSDSLIIDRTKQKAAYLGNVIVYFDNAILRTKELYIFYKTIDEKQTIDHIVVPTKLTVERKINNELLLADSAKYFCDNKQLILLGNVILQRDDNVLKTNKLIYYVDIIKK | not soluble |
